# According to US20180155451A1 (published 2018):
# B1: GpH7-A5/GpH7-B3 variant A330_08L/GpL16-k0 (antibody, human IgG1, kappa)
# heavy 1: not shown
# heavy 2: not shown
# light: DIVMTQSPLSLPVTPGEPASISCQASESLVHSNRNTYLHWYLQKPGQSPQLLIYKVSNRFSGVPDRFSGSGSGTDFTLKISRVEAEDVGVYYCSQNTHVPPTFGQGTKVEIERTVAAPSVFIFPPSDEQLKSGTASVVCLLNNFYPREAKVQWKVDNALQSGNSQESVTEQDSKDSTYSLSSTLTLSKADYEKHKVYACEVTHQGLSSPVTKSFNRGEC
# notes: He Ab; IgG1; mutation in one H chain only
# B2: GpH7-A5/GpH7-B3 variant P329_10E/GpL16-k0 (antibody, human IgG1, kappa)
# heavy 1: not shown
# heavy 2: not shown
# light: B1 light
# notes: He Ab; IgG1; mutation in one H chain only; also called GpH7-A5/GpH7-B15/GpL16-k0
# B3: GpH7-A5/GpH7-B3 variant P329_11K/GpL16-k0 (antibody, human IgG1, kappa)
# heavy 1: not shown
# heavy 2: not shown
# light: B1 light
# notes: He Ab; IgG1; mutation in one H chain only; also called GpH7-A5/GpH7-B13/GpL16-k0
# B4: GpH7-A5/GpH7-B3 variant P329_08L/GpL16-k0 (antibody, human IgG1, kappa)
# heavy 1: not shown
# heavy 2: not shown
# light: B1 light
# notes: as for B1
# B5: GpH7-A5/GpH7-B3 variant I336_20W/GpL16-k0 (antibody, human IgG1, kappa)
# heavy 1: not shown
# heavy 2: not shown
# light: B1 light
# notes: as for B1
# B6: GpH7-A5/GpH7-B3 variant S298_14T/GpL16-k0 (antibody, human IgG1, kappa)
# heavy 1: not shown
# heavy 2: not shown
# light: B1 light
# notes: as for B1
# B7: GpH7-A5/GpH7-B3 variant A330_14T/GpL16-k0 (antibody, human IgG1, kappa)
# heavy 1: not shown
# heavy 2: not shown
# light: B1 light
# notes: as for B1
# B8: GpH7-A5/GpH7-B3 variant P329_03V/GpL16-k0 (antibody, human IgG1, kappa)
# heavy 1: not shown
# heavy 2: not shown
# light: B1 light
# notes: as for B1
# B9: GpH7-A5/GpH7-B3 variant A330_13S/GpL16-k0 (antibody, human IgG1, kappa)
# heavy 1: not shown
# heavy 2: not shown
# light: B1 light
# notes: as for B1
# B10: GpH7-A5/GpH7-B3 variant N325_05P/GpL16-k0 (antibody, human IgG1, kappa)
# heavy 1: not shown
# heavy 2: not shown
# light: B1 light
# notes: as for B1
# B11: GpH7-A5/GpH7-B3 variant S298_15Y/GpL16-k0 (antibody, human IgG1, kappa)
# heavy 1: not shown
# heavy 2: not shown
# light: B1 light
# notes: as for B1
# B12: GpH7-A5/GpH7-B3 variant P329_09D/GpL16-k0 (antibody, human IgG1, kappa)
# heavy 1: not shown
# heavy 2: not shown
# light: B1 light
# notes: He Ab; IgG1; mutation in one H chain only; also called GpH7-A5/GpH7-B14/GpL16-k0
# B13: GpH7-A5/GpH7-B3 variant P329_19Q/GpL16-k0 (antibody, human IgG1, kappa)
# heavy 1: not shown
# heavy 2: not shown
# light: B1 light
# notes: as for B1
# B14: GpH7-A5/GpH7-B3 variant S298_16H/GpL16-k0 (antibody, human IgG1, kappa)
# heavy 1: not shown
# heavy 2: not shown
# light: B1 light
# notes: as for B1
# B15: GpH7-A5/GpH7-B3 variant P329_14T/GpL16-k0 (antibody, human IgG1, kappa)
# heavy 1: not shown
# heavy 2: not shown
# light: B1 light
# notes: as for B1
# B16: GpH7-A5/GpH7-B3 variant P329_07I/GpL16-k0 (antibody, human IgG1, kappa)
# heavy 1: not shown
# heavy 2: not shown
# light: B1 light
# notes: as for B1
# B17: GpH7-A5/GpH7-B3 variant S298_10E/GpL16-k0 (antibody, human IgG1, kappa)
# heavy 1: not shown
# heavy 2: not shown
# light: B1 light
# notes: as for B1
# B18: GpH7-A5/GpH7-B3 variant A330_12R/GpL16-k0 (antibody, human IgG1, kappa)
# heavy 1: not shown
# heavy 2: not shown
# light: B1 light
# notes: as for B1
# B19: GpH7-A5/GpH7-B3 variant S298_18N/GpL16-k0 (antibody, human IgG1, kappa)
# heavy 1: not shown
# heavy 2: not shown
# light: B1 light
# notes: as for B1
# B20: GpH7-A5/GpH7-B3 variant P329_02A/GpL16-k0 (antibody, human IgG1, kappa)
# heavy 1: not shown
# heavy 2: not shown
# light: B1 light
# notes: as for B1
# B21: GpH7-A5/GpH7-B3 variant N325_19Q/GpL16-k0 (antibody, human IgG1, kappa)
# heavy 1: not shown
# heavy 2: not shown
# light: B1 light
# notes: as for B1
# B22: GpH7-A5/GpH7-B3 variant N325_16H/GpL16-k0 (antibody, human IgG1, kappa)
# heavy 1: not shown
# heavy 2: not shown
# light: B1 light
# notes: as for B1
# B23: GpH7-A5/GpH7-B3 variant P331_01G/GpL16-k0 (antibody, human IgG1, kappa)
# heavy 1: not shown
# heavy 2: not shown
# light: B1 light
# notes: as for B1
# B24: GpH7-A5/GpH7-B3 variant A330_10E/GpL16-k0 (antibody, human IgG1, kappa)
# heavy 1: not shown
# heavy 2: not shown
# light: B1 light
# notes: as for B1
# B25: GpH7-A5/GpH7-B3 variant P329_13S/GpL16-k0 (antibody, human IgG1, kappa)
# heavy 1: not shown
# heavy 2: not shown
# light: B1 light
# notes: as for B1
# B26: GpH7-A5/GpH7-B3 variant P329_04F/GpL16-k0 (antibody, human IgG1, kappa)
# heavy 1: not shown
# heavy 2: not shown
# light: B1 light
# notes: as for B1
# B27: GpH7-A5/GpH7-B3 variant S298_12R/GpL16-k0 (antibody, human IgG1, kappa)
# heavy 1: not shown
# heavy 2: not shown
# light: B1 light
# notes: as for B1
# B28: GpH7-A5/GpH7-B3 variant P329_18N/GpL16-k0 (antibody, human IgG1, kappa)
# heavy 1: not shown
# heavy 2: not shown
# light: B1 light
# notes: as for B1
# B29: GpH7-A5/GpH7-B3 variant P329_12R/GpL16-k0 (antibody, human IgG1, kappa)
# heavy 1: not shown
# heavy 2: not shown
# light: B1 light
# notes: He Ab; IgG1; mutation in one H chain only; also called GpH7-A5/GpH7-B12/GpL16-k0
# B30: GpH7-A5/GpH7-B3 variant A330_09D/GpL16-k0 (antibody, human IgG1, kappa)
# heavy 1: not shown
# heavy 2: not shown
# light: B1 light
# notes: as for B1
# B31: GpH7-A5/GpH7-B3 variant P329_16H/GpL16-k0 (antibody, human IgG1, kappa)
# heavy 1: not shown
# heavy 2: not shown
# light: B1 light
# notes: as for B1
# B32: GpH7-A5/GpH7-B3 variant P329_06M/GpL16-k0 (antibody, human IgG1, kappa)
# heavy 1: not shown
# heavy 2: not shown
# light: B1 light
# notes: as for B1
# B33: GpH7-A5/GpH7-B3 variant N325_02A/GpL16-k0 (antibody, human IgG1, kappa)
# heavy 1: not shown
# heavy 2: not shown
# light: B1 light
# notes: as for B1
# B34: GpH7-A5/GpH7-B3 variant N325_11K/GpL16-k0 (antibody, human IgG1, kappa)
# heavy 1: not shown
# heavy 2: not shown
# light: B1 light
# notes: as for B1
# B35: GpH7-A5/GpH7-B3 variant P329_15Y/GpL16-k0 (antibody, human IgG1, kappa)
# heavy 1: not shown
# heavy 2: not shown
# light: B1 light
# notes: as for B1
# B36: GpH7-A5/GpH7-B3 variant A330_18N/GpL16-k0 (antibody, human IgG1, kappa)
# heavy 1: not shown
# heavy 2: not shown
# light: B1 light
# notes: as for B1
# B37: GpH7-A5/GpH7-B3 variant S298_11K/GpL16-k0 (antibody, human IgG1, kappa)
# heavy 1: not shown
# heavy 2: not shown
# light: B1 light
# notes: as for B1
# B38: GpH7-A5/GpH7-B3 variant N325_12R/GpL16-k0 (antibody, human IgG1, kappa)
# heavy 1: not shown
# heavy 2: not shown
# light: B1 light
# notes: as for B1
# Molecular target: T1, FcγRIIa R (human, UniProt P12318 34-217)
# T1 construct: extracellular domain; also called FcgRIIa R; FcγRIIa type R
# T1 sequence (looked up): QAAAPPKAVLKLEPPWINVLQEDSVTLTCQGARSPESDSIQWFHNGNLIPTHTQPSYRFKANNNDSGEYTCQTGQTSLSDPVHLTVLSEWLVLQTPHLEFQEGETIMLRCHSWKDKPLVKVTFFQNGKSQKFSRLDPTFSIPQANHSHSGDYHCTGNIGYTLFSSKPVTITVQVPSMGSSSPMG
# Assay: SPR (Biacore), captured antibody, FcγR analyte; binding relative to GpH7-A5/GpH7-B3/GpL16-k0 = 100
row,Binder,He/Con_2aR (IIaR binding) [control=100]
1,B1,88.8
2,B2,64.8
3,B3,30.2
4,B4,42.8
5,B5,30.3
6,B6,98.5
7,B7,95.5
8,B8,53.8
9,B9,60.8
10,B10,42.2
11,B11,79.1
12,B12,67.8
13,B13,41.1
14,B14,88.5
15,B15,57.3
16,B16,49.6
17,B17,65.1
18,B18,104
19,B19,68

row,Binder,He/Con_2aR (IIaR binding) [control=100]
1,B20,58.9
2,B21,92.1
3,B22,89
4,B23,61
5,B24,86.6
6,B25,61.5
7,B26,44.7
8,B27,85.3
9,B28,61.2
10,B29,29.3
11,B30,70.9
12,B31,56.7
13,B32,42.7
14,B33,84.1
15,B34,16.2
16,B35,67.9
17,B36,81.1
18,B37,95.1
19,B38,26.1

# Molecular target: T2, FcγRIIb (human, UniProt P31994 43-217)
# T2 construct: extracellular domain; also called FcgRIIb
# T2 sequence (looked up): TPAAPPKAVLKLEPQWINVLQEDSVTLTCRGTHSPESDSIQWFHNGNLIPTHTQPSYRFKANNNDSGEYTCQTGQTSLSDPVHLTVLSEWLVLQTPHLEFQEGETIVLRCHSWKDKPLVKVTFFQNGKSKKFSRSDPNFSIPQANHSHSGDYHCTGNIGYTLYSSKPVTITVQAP
# Assay: as above
row,Binder,He/Con_2b (IIb binding) [control=100]
1,B1,70.5
2,B2,52.7
3,B3,16.9
4,B4,29.1
5,B5,20.3
6,B6,77.9
7,B7,77.9
8,B8,38.5
9,B9,41.3
10,B10,26
11,B11,61.4
12,B12,53.5
13,B13,30.7
14,B14,63.5
15,B15,37.9
16,B16,34.6
17,B17,47.6
18,B18,84.8
19,B19,48.1

row,Binder,He/Con_2b (IIb binding) [control=100]
1,B20,40.5
2,B21,69.1
3,B22,70.1
4,B23,45.4
5,B24,70.1
6,B25,41
7,B26,32.2
8,B27,57.8
9,B28,40.4
10,B29,17.6
11,B30,55.6
12,B31,39.1
13,B32,29.1
14,B33,64.4
15,B34,10.4
16,B35,45.7
17,B36,63.7
18,B37,61.3
19,B38,19.1

# Molecular target: T1, FcγRIIa R
# Assay: He/Con_2aR divided by He/Con_2b (FcγRIIa R over FcγRIIb); SPR (Biacore)
row,Binder,IIaR/IIb (He_2aR/2b) [ratio]
1,B1,1.26
2,B2,1.23
3,B3,1.79
4,B4,1.47
5,B5,1.5
6,B6,1.26
7,B7,1.23
8,B8,1.4
9,B9,1.47
10,B10,1.63
11,B11,1.29
12,B12,1.27
13,B13,1.34
14,B14,1.39
15,B15,1.51
16,B16,1.44
17,B17,1.37
18,B18,1.22
19,B19,1.41

row,Binder,IIaR/IIb (He_2aR/2b) [ratio]
1,B20,1.45
2,B21,1.33
3,B22,1.27
4,B23,1.34
5,B24,1.23
6,B25,1.5
7,B26,1.39
8,B27,1.48
9,B28,1.51
10,B29,1.66
11,B30,1.27
12,B31,1.45
13,B32,1.47
14,B33,1.31
15,B34,1.57
16,B35,1.49
17,B36,1.27
18,B37,1.55
19,B38,1.37
